Here are results for one substance from paper PMC11707139.

The target in the experiment is piggyBat transposase (Myotis lucifugus). Put plainly: AUC; sedimentation velocity, ~3.1 µM purified pBat without DNA, 500 mM NaCl, 25 mM Tris-HCl pH 7.4, 0.5 mM TCEP, 50,000 rpm, 20 °C, c(s) analysis.

Broadly, the stoichiometry N is the number of molecules, sites or subunits per partner or assembly. In the case of piggyBat transposase (enzyme), the stoichiometry N was 2.
